Experiment [1] is described as follows: activity for promoting ceramide intermembrane transfer (donating/receiving membrane, castor seed lectin). The format is biochemical. The source says: Subsequently, as described in detail below, whether or not hCERT protein and recombinant protein promotes the transfer between ceramide lipid membrane was considered, the purified hCERT protein and its recombinant protein were used in this assay were used. The present method was constructed on the basis of the principle of method of measuring the activity for promoting the intermembrane transfer of phosphatidylinositol by phosphatidylinositol transfer protein already reported by Kasper et al (Biochim. Biophys. Acta 664, 22-32, 1981) so that it becomes a new method of measuring the activity for promoting the ceramide intermembrane transfer. For the purpose of measuring the activity for promoting the intermembrane transfer, a donating membrane in which radioactive ceramide has been contained and a receiving membrane not containing ceramide were prepared. For the purpose of separating the lipid membrane, lactocylceramide was contained in the donating membrane. After the donating membrane and receiving membrane have been incubated with the protein sample to be targeted, castor seed lectin was added. Ceramide intermembrane-transferred can be quantified by measuring the radioactive activity of receptor membrane which has not been precipitated by a low speed centrifugation. […]

For experiment [2], the system named is LY-A2 cell. Put plainly: metabolism labeling of lipid using [14C] serine and [14C] choline. The settings on record: LY-A2/hCERT cell. The format is cell-based, Chinese hamster. The procedure:
CHO-K1 cell, LY-A2 cell, and LY-A2/hCERT cell were inoculated at the cell density of 1.0×10^6 per culture dish having the 60-mm diameter, and cultured at 33° C. overnight. Subsequently, it was exchanged with […] of Nutridoma medium, after [^14C] serine (0.75 μCi) or [^14C] choline (1.0 μCi) have been added, in the case where [^14C] serine is added, it was cultured for 2 hours, and in the case where [^14C] choline is added, it was cultured at 33° C. for 5 hours. However, in the case where the influence on (1R, 3R) HPA-12 is analyzed, after it was pretreated at […] for 15 minutes in 1.5 mL of Nutridoma medium to which 1 μM of (1R,3R) HPA-12 has been added (in control experiment, dimethylsulfoxide used for dissolving a drug was added at the concentration corresponding to 0.01% of the final concentration), [^14C] serine was added, and cultured at 33° C. for 2 hours. After the cell was washed twice in 2 mL of cooled PBS, dissolved in 900 μL of sodium dodecyl sulfate (SDS), then, 800 μL and 20 μL of dissolved matter were used for determining lipid extraction and protein concentration. For the purpose of analyzing lipid labeled with [^14C] serine, the lipid was separated by TLC by making acetic methyl/n-propanol/chloroform/methanol/0.25% KCl (25:25:25 10:9, volume ratio) development solvent. The radioactive lipid separated on the plate was detected and analyzed by an image analyzer.

B1: hCERT protein: human CERT protein having an amino acid sequence of SEQ ID NO:1 (protein)
chain: MSDNQSWNSSGSEEDPETESGPPVERCGVLSKWTNYIHGWQDRWVVLKNNALSYYKSEDETEYGCRGSICLSKAVITPHDFDECRFDISVNDSVWYLRAQDPDHRQQWIDAIEQHKTESGYGSESSLRRHGSMVSLVSGASGYSATSTSSFKKGHSLREKLAEMETFRDILCRQVDTLQKYFDACADAVSKDELQRDKVVEDDEDDFPTTRSDGDFLHSTNGNKEKLFPHVTPKGINGIDFKGEAITFKATTAGILATLSHCIELMVKREDSWQKRLDKETEKKRRTEEAYKNAMTELKKKSHFGGPDYEEGPNSLINEEEFFDAVEAALDRQDKIEEQSQSEKVRLHWPTSLPSGDAFSSVGTHRFVQKVEEMVQNHMTYSLQDVGGDANWQLVVEEGEMKVYRREVEENGIVLDPLKATHAVKGVTGHEVCNYFWNVDVRNDWETTIENFHVVETLADNAIIIYQTHKRVWPASQRDVLYLSVIRKIPALTENDPETWIVCNFSVDHDSAPLNNRCVRAKINVAMICQTLVSPPEGNQEISRDNILCKITYVANVNPGGWAPASVLRAVAKREYPKFLKRFTSYVQEKTAGKPILF
modifications: HeLa cell
Consider B1, for which the “activity for promoting ceramide intermembrane transfer” value in experiment [1] (37° C., 14C of supernatant and donating membrane, FIGS. 17, 18) was “detected depending on the amount of hCERT, the length of incubation time and incubation temperature”. In addition, the “ceramide transferred to the receiving membrane vesicle” value in experiment [1] (for 10 minutes) is on record as roughly 50%. Besides, in experiment [2] (radioactive choline, FIG. 4(B)), the PC synthesizing rate entry is “at the wild type level” and the SM biosynthesizing rate result was “recovered to the wild type level”. Besides, in experiment [2] (radioactive serine, FIG. 4(A)), the SM biosynthesis speed result is “recovered to the wild type level”.

Source of the values: patent US20080085859A1, “Drug Promoting Ceramide Transport, Base Sequence for Producing the Drug, Method of Measuring Activity of Promoting Ceramide Release and Method of Measuring Activity of Promoting Intermembrane Ceramide Transfer” (JAPAN SCIENCE AND TECHNOLOGY AGENCY, priority 2003, published 2008).
